# What was measured:
# BAX^2S = target: T1, BAX^2S (Homo sapiens, UniProt Q07812, C62S/C126S); experiment: thermal shift, FLAMBE and LUV permeabilization with purified BAX^2S (activation); assay type: biochemical
# T1 construct: recombinant human BAX, cysteine-replacement mutant
# BAX [1] = target: T2, BAX (Homo sapiens, UniProt Q07812); experiment: microscale thermophoresis; also 1H-15N HSQC NMR, FLAMBE, LUV permeabilization; assay type: binding; parameters: recombinant human BAX, without a tag or exogenous residues (Alexa Fluor 647-labeled for MST)
# [2] = target: 5-TAMRA labeled BAK-BH3 peptide; experiment: FLAMBE (fluorescence polarisation); conditions: BAKTAMRA 50 nM, read at 60 min, read off a plot
# BAX [3] = target: T2, BAX; experiment: microscale thermophoresis; assay type: binding; parameters: recombinant human BAX WT
# BAX [4] = target: T2, BAX; experiment: 1H-15N HSQC NMR chemical shift perturbation; MST; assay type: binding; parameters: 15N-labeled BAX WT
# T2 sequence (Q07812 whole entry): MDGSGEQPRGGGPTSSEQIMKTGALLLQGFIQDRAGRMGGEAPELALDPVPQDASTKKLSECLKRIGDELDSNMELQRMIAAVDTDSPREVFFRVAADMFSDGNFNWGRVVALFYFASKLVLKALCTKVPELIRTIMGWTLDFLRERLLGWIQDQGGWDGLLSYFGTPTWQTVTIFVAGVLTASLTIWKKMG
# T1 sequence (Q07812 whole entry C62S/C126S): as the sequence (Q07812 whole entry) above, with C62S, C126S counted along it
compound,measurement,setting,value
"CCCCCCCCCCCCC/C=C/C=O [2t16, 2-trans-hexadecenal]","thermal shift, FLAMBE and LUV permeabilization with purified BAX^2S (activation)",BAX^2S,"BAX^2S remained sensitive to hexadecenal-mediated changes in melting temperature, pore formation, and synergy with BIM‑BH3 peptide"
same,EC50,BAX [1],0.182 µM
"recombinant human BAX, wild type (from UniProt Q07812) P168G",response,"[2]; BAXP168G 65 nM, 2t16 3 μM, no BIM-BH3",240 mP
same,response,"[2]; BAXP168G 65 nM, BIM-BH3 0.15 μM, 2t16 3 μM",300 mP
same,response,"[2]; BAXP168G 65 nM, BIM-BH3 0.15 μM, no 2t16",310 mP
same,response,"[2]; BAXP168G 65 nM, no BIM-BH3, no 2t16",260 mP
"CCCCCCCCC/C=C/C=O [2t12, 2t-dodecenal]",microscale thermophoresis,BAX [3],"When subjected to MST, BAX^WT exhibited altered thermophoresis with each of the alkenals"
"CCCCCC/C=C/C=O [2t9, 2t-nonenal]",1H-15N HSQC NMR chemical shift perturbation; MST,BAX [4],nonenal and especially pentenal interacted with several accessible regions of BAX
"recombinant human BAX, wild type (from UniProt Q07812) L59C; C62S; C126S; L162C",response,"[2]; BAXα8 225 nM, 2t16 4.5 μM, no BIM-BH3",200 mP
same,response,"[2]; BAXα8 225 nM, BIM-BH3 0.15 μM, 2t16 4.5 μM",260 mP
same,response,"[2]; BAXα8 225 nM, BIM-BH3 0.15 μM, no 2t16",260 mP
same,response,"[2]; BAXα8 225 nM, no BIM-BH3, no 2t16",200 mP
"CCCCCCCC/C=C/C=O [2t11, 2t-undecenal]",microscale thermophoresis,BAX [3],"When subjected to MST, BAX^WT exhibited altered thermophoresis with each of the alkenals"
